Results reported in PMC10998907 (Nature Communications, 2024).

Target: NiV-RBP ectodomain homotetramer (Nipah virus, Malaysia (deposit 8K3C …, UniProt Q9IH62))
Assay: cryo-EM structure
Conditions: both partners purified

Chain of NiV-RBP ectodomain homotetramer (Nipah virus, Malaysia (Q9IH62 whole entry, looked up, the tested form may be a part): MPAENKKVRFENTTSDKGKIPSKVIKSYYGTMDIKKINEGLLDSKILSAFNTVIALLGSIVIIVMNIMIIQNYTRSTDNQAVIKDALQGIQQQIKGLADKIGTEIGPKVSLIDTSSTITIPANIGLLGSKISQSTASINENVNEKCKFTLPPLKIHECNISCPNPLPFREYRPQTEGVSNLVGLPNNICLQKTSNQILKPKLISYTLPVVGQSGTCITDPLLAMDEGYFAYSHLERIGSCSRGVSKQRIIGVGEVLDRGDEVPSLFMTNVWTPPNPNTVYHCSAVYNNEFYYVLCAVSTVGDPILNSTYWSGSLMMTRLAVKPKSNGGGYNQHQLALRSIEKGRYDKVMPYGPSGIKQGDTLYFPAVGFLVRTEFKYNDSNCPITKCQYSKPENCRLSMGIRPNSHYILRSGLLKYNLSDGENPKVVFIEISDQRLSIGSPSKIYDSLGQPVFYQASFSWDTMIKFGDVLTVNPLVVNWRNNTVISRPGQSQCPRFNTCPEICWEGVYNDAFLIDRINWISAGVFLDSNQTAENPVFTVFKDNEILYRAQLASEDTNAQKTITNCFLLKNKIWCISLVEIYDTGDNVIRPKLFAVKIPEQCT

B1: 41-6 Fab fragment (Fab, V domains shown)
VH: EVQLVQSGGGLVQPGGSLRLSCAASGFTVSSNYMSWVRQAPGKGLEWVSAISGSGGSTYYADSVKGRFTISRDNSKNTLYLQMNSLRAEDTAVYYCARDREDIVVVPAPRGYYYYYYMDVWGQGTTVTVSS
VL: QSVVTQPPSVSAAPGQKVTISCSGSSSNIGTNHLSWYQQVPGTAPKLLIYDNNKRPSGIPDRFSGSKSGTSASLAISGLQSEDEADYYCATWDDSLHAWVFGGGTKLTVL
  stoichiometry N: 3
